Paper PMC10654658, “The structural and functional investigation into an unusual nitrile synthase” (Nature Communications, 2023)

Target: AetD nitrile synthase (Aetokthonos hydrillicola)
Test: SEC; Superdex 200 10/300 GL; 100 uL of 10 mg/mL AetD in 25 mM Tris-HCl pH 7.5, 150 mM NaCl; flow rate 0.2 mL/min; mass estimated from protein markers

AetD nitrile synthase (from UniProt A0A861B387 1-239) (enzyme)
stoichiometry N: 2
